Residue numbers refer to the chain shown, from its start. In names and notes the source's numbering stands.
B1: 89H-IgG4 S228P (antibody, V domains shown)
VH: EVQLVESGGGLVQPGGSLRLSCAASGFSLSTYAMIWVRQAPGKGLEWVGIISPSGTTYYATWAKGRFTISRDNSKNTLYLQMNSLRAEDTAVYYCARAGSGGWDYFNIWGQGTLVTVSS
VL: DIQMTQSPSSLSASVGDRVTITCQASQSISSYLSWYQQKPGKAPKLLIYYASNLASGVPSRFSGSGSGTDFTLTISSLQPEDFATYYCQSYYYSNNYNWAFGGGTKVEIK
B2: 14H2B-IgG4 S228P (antibody, V domains shown)
VH: EVQLVESGGGLVQPGGSLRLSCAASGIDLSSYSMIWVRQAPGKGLEWIGIIYTGGSTDYASWAKGRFTISRDNSKNTLYLQMNSLRAEDTAVYYCARENSHDTFDPWGQGTLVTVSS
VL: DIQMTQSPSSLSASVGDRVTITCQSSQSVYTNYQSWYQQKPGKAPKLLIYAASTLASGVPSRFSGSGSGTDFTLTISSLQPEDFATYYCLGSYVSSGWYYAFGGGTKVEIK
B3: 4E10-IgG4 S228P (antibody, V domains shown)
VH: EVQLVESGGGLVQPGGSLRLSCAASGFSLSNYEMIWVRQAPGKGLEWVGIIYVSRSTHYASWAKGRFTISRDNSKNTLYLQMNSLRAEDTAVYYCGRYLASGGFNIWGQGTLVTVSS
VL: DIQMTQSPSTLSASVGDRVTITCQASHNIYSNLAWYQQKPGKAPKLLIYDASKLASGVPSRFSGSGSGTEFTLTISSLQPDDFATYYCQSYYGNSYPFGGGTKVEIK
B4: 44H-IgG4 S228P (antibody, V domains shown)
VH: B2 VH with I27F, D28S, I48V, G55S, T57A, D58S
VL: B2 VL with Q34L
B5: 8H- IgG4 S228P (antibody, V domains shown)
VH: EVQLVESGGGLVQPGGSLRLSCAASGFSFSSSDYMCWVRQAPGKGLEWVGCINSGSDTTSYATWAKGRFTISRDNAKNTLYLQMNSLRAEDTAVYYCARGYGSAGANGYVIGMKYLNLWGQGTLVTVSS
VL: DIQMTQSPSSLSASVGDRVTITCQASQSIGSNLAWYQQKPGKAPKLLIYTASTLESGVPSRFSGSGSGTDFTLTISSLQPEDFATYYCQCTYGSSSSGYPFGGGTKVEIK
B6: 4H- IgG4 S228P (antibody, V domains shown)
VH: EVQLVESGGGLVQPGGSLRLSCAASGFSFSSYYFMCWVRQAPGKGLEWVACIDAGYSGGSHYASWAKGRFTISRDNSKNTLYLQMNSLRAEDTAVYYCARAYEYGYGGYDLWGQGTLVTVSS
VL: DIQMTQSPSSLSASVGDRVTITCQASQSIDSNLAWYQQKPGKAPKLLIYRASGLESGVPSRFSGSGSGTDFTLTISSLQPEDFATYYCQCTYGSNDSGNYANAFGGGTKVEIK
B7: OSE-172 (antibody, from another filing, V domains shown)
VH: EVQLVQSGAEVKKPGESLRISCKASGYSFTSYWVHWVRQMPGKGLEWMGNIDPSDSDTHYSPSFQGHVTLSVDKSISTAYLQLSSLKASDTAMYYCVRGGTGTLAYFAYWGQGTLVTVSS
VL: DVVMTQSPLSLPVTLGQPASISCRSSQSLVHSYGNTYLYWFQQRPGQSPRLLIYRVSNRFSGVPDRFSGSGSGTDFTLKISRVEAEDVGVYYCFQGTHVPYTFGGGTKVEIKR

These binders were tested against human SIRPα expressed on the surface of human monocyte-derived dendritic cells (human) (UniProt P78324) (assay: flow cytometry, mDC surface binding, donor/experiment 1).
human SIRPα expressed on the surface of human monocyte-derived dendritic cells (human), sequence (P78324 31-504): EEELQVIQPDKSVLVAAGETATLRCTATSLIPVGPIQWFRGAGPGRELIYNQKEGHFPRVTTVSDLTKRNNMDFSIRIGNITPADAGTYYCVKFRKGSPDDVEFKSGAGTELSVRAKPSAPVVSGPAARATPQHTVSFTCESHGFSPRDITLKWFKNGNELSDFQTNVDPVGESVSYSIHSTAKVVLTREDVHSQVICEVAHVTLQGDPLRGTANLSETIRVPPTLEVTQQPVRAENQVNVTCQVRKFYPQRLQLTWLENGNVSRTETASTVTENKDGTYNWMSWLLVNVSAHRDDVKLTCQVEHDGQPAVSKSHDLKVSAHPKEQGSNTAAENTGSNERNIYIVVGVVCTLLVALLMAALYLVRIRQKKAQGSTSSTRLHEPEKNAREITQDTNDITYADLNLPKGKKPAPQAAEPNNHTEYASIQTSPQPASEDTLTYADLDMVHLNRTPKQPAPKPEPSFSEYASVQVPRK

Binder | Kd
B1 | 1.04 nM
B2 | 1.48 nM

These binders were tested against human SIRPα expressed on the surface of human monocyte-derived dendritic cells (human) (UniProt P78324) (assay: flow cytometry, mDC surface binding, donor/experiment 2).

Binder | Kd
B1 | 0.923 nM
B2 | 0.953 nM

What follows are binders tested against human SIRPα expressed on the surface of human monocyte-derived dendritic cells (human) (UniProt P78324) (assay: flow cytometry, mDC surface binding, donor/experiment 3).

Binder | Kd
B1 | 0.881 nM
B2 | 0.99 nM

The binders below were run against human SIRPα expressed on the surface of human monocyte-derived dendritic cells (human) (UniProt P78324) (assay: flow cytometry, mDC surface binding, donor/experiment 4).

Binder | Kd
B1 | 0.908 nM
B2 | 1.33 nM

These binders were tested against human SIRPα expressed on the surface of human monocyte-derived dendritic cells (human) (UniProt P78324) (assay: flow cytometry on human monocyte-derived dendritic cells).

Binder | Kd
B3 | 0.264 nM
B1 | 0.378 nM
B2 | 0.686 nM
B4 | 0.672 nM
B5 | 1.66 nM
B6 | 0.0881 nM
B7 | 0.572 nM

— US20230340112A1
